Data taken from publication PMC2939592, “Laser ablation-based one-step generation and bio-functionalization of gold nanoparticles conjugated with aptamers”.

Target: PSMA (prostate-specific membrane antigen) (human, UniProt Q04609 1-750)
Experiment: tissue microarray staining with silver enhancement; 1 mM MgCl2, 1 mM CaCl2; epithelial staining similar to anti-PSMA antibody; extra smooth muscle staining; miniStrep: 50 mM Tris-Cl pH 8.0, 150 mM NaCl, 10 mM MgCl2, room temperature (16 h in solution); anti-PSMA: 20 mM HEPES pH 7.4, 150 mM NaCl, 1 mM MgCl2, 1 mM CaCl2, 0.05% Tween 20, 20 C
Details: protein: native; chain copies: 2; label: AuNP

Sequence of PSMA (prostate-specific membrane antigen) (Q04609 whole entry): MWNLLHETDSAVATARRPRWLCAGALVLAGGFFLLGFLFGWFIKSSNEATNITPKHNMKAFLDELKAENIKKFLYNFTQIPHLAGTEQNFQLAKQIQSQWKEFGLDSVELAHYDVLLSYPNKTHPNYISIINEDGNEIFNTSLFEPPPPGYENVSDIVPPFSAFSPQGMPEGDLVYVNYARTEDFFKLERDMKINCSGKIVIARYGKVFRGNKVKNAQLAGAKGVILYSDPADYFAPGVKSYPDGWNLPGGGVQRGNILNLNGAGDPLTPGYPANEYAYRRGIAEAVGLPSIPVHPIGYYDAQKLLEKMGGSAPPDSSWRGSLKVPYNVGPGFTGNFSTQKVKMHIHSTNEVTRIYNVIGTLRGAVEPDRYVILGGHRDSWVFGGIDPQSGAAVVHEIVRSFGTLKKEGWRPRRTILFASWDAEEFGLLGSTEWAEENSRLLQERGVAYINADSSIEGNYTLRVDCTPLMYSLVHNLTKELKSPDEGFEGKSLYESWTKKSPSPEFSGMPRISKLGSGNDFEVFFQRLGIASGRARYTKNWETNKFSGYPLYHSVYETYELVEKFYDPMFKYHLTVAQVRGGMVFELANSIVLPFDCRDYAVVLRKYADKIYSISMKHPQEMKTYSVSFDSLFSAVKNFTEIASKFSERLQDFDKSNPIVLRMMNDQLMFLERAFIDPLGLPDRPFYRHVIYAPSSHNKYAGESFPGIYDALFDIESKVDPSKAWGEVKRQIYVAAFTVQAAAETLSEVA

B1: anti-PSMA aptamer on AuNP (structured_RNA)
RNA: GGGAGGACGAUGCGGAUCAGCCAUGUUUACGUCACUCCUUGUCAAUCCUCAUCGGCAGACGACUCGCCCGA
modifications: 3'-(CH2CH2O)6-(CH2)6-S-S-(CH2)6OH, conjugated to gold nanoparticle; base/sugar modifications not stated
Does B1 bind?
Result: binds
